From paper PMC4805248
One block for each substance: values may come before it.

Experiments:
[1] = target: PgMntR 4Ala variant (D19A/C108A/E111A/H112A) (Porphyromonas gingivalis W50); assay: AUC; sedimentation velocity; 10 or 60 uM protein in TBS (50 mM Tris-Cl, 150 mM NaCl, pH 7.5), 20 C, 40,000 rpm; without divalent metal, also with Mn2+ and with 2 mM TCEP; c(s) fit in SEDFIT
[2] = target: PgMntR (Porphyromonas gingivalis manganese transport regulator orthologue, PG1044), recombinant wild type (Porphyromonas gingivalis W50); assay: as above
[3] = target: PgMntR C108E variant (Porphyromonas gingivalis W50); assay: as above
[4] = target: T1, PgMntR (Porphyromonas gingivalis W50 (W83 locus PG1044)) (UniProt Q7MVL0); assay: EMSA; conditions: EMSA: 1 nM biotinylated DNA, 700-1000 nM protein, 90 mM Bis-Tris borate pH 6.8 (1 mM TCEP, 5 mM DTT) or 10 mM Tris-Cl pH 7.5 or Tris-acetate pH 6.8, 50 mM KCl …
T1 sequence: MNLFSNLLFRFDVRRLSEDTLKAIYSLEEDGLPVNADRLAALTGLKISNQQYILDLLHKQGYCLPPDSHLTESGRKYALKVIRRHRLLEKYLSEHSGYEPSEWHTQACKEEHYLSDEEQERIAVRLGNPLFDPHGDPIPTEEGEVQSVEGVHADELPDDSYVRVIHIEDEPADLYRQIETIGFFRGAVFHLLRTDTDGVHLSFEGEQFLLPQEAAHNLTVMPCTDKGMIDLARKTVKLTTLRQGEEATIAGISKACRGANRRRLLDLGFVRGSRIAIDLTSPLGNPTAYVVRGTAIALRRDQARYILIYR

[5] = target: PgMntR ΔFeoA2 (PgMntR without the final C-terminal FeoA domain) (Porphyromonas gingivalis W50); assay: AUC; sedimentation velocity; 10 or 60 uM protein in TBS (50 mM Tris-Cl, 150 mM NaCl, pH 7.5), 20 C, 40,000 rpm; without divalent metal, also with Mn2+ and with 2 mM TCEP; c(s) fit in SEDFIT
[6] = target: PgMntR D19M variant (Porphyromonas gingivalis W50); assay: as above

Substance: PgMntR 4Ala variant (D19A/C108A/E111A/H112A) (natural protein)
stoichiometry N [1]: 2

stoichiometry N [2]: 2
Substance: PgMntR (Porphyromonas gingivalis manganese transport regulator orthologue, PG1044), recombinant wild type (natural protein)

Substance: PgMntR C108E variant (natural protein)
stoichiometry N [3]: 2

Substance: GATAGCGCAAAAATACTAACTAAACCAATGAATAAACGAGAAATACAATTTATTATTAAAGAGACTGTTGCACAATAACCCTCTCCCCCTCTCATATTGATCAAGACAGACACAAGCATTGATTTGACGAAGAAAGGAGAGCTTCATGCAATCTCTCTGCAAACCTCAAGTAATCTGAAAAACACTTAAGAATCAGCTCTGCGGCAAAAGACTTCAATGAAAGTCCTATAAAATAGTTGCAAACAGCTGATAGTTAGCGCATTGATGGGAGC (double strand) [FB1p (feoB1 promoter)]
binding [4]: no binding

Substance: PgMntR ΔFeoA2 (PgMntR without the final C-terminal FeoA domain) (domain or fragment)
stoichiometry N [5]: 2

Substance: PgMntR D19M variant (natural protein)
stoichiometry N [6]: 2
